Assay results published in the RNAGym collection of RNA variant scans (doi:10.7554/elife.80360).

B1: HDV Ribozyme (parent)
chain: GGCCGGCAUGGUCCCAGCCUCCUCGCUGGCGCCGGCUGGGCAACAUUCCGAGGGGACCGUCCCCUCGGUAAUGGCGAAUGGGACCCA

Variants of: B1
Assay: self-cleavage, relative activity (ratio to wild type); higher = more cleavage; co-transcriptional

Variant	self-cleavage
G25U G31A	0.157
U37C C44U	0.529
C41U A71C	0.644
C7U C84A	1.14
U20C G28A	0.147
A43G A83U	0.266
G29C C66U	0.0573
C7A C85G	0.688
C3G G53C	0.609
C44U G76A	0.87
G29A C75G	0.0346
U37G A45U	0
U9C C36A	0.178
C22A C24A	0.188
C7U G68U	0.764
C4U G53U	0.831
C3A U79C	0.106
C18U G40A	0.691
C30G C63A	0.229
U23C C33U	0.697
A16C A78G	0.361
C18A G67A	0.163
U37A C41U	0.403
C15G G82A	0.0978

Variant	self-cleavage
G10U A70C	0.678
C19U C24A	0.0791
G6A A45C	0.0519
C64G A78G	0.527
U72C A78U	0.249
G11U G81C	0.126
A42G G80U	0.095
G31C C62G	0.166
G5U C22A	0.0415
G28A C48G	0
U23G A83C	0
A43U A70G	1.05
A43U A70C	0.554
G5A C86G	0.13
A70C A83U	0.475
C85A A87G	0.875
C7G C26U	0.356
G29U G39C	0.0302
A51U U79A	1.09
C57A A71U	0.929
U12G U72G	0.128
G2C C62A	0.0462
C14A G53C	0.665
G52A G68A	0.788

Variant	self-cleavage
C64A A71G	0.529
C19A G31U	0.192
G2A G39A	0.0171
C41U C66G	0.926
G29A C64G	0.202
C19G U46C	0.13
A16U C33G	0.166
C7U A8G	0.582
G29C U60A	0.0426
A56U C57G	1.08
G25C U60G	0.101
C18U C44U	0.258
G2A U27A	0.0997
G1C C13U	0.125
U46A C86A	0.958
U20C C58A	0.0875
U37C G50C	1.07
C48A C58U	1.11
G39U C58A	0.665
C32A C49A	0.415
A16G G59A	1.29
C13A G81U	0.22
A16G C21A	0
C24U A70G	0.706

Variant	self-cleavage
U79A G80U	0.148
G1C G28C	0
A16U U46C	1.21
U27G G74U	0.151
U46A G74A	0.519
G29U C30G	0.0923
G5U C57G	0.256
U20G A56U	0.178
G39A A77U	0.176
G35A C64U	0.475
U12G C58A	0.962
U12C G67A	0.229
G59A C64G	0.831
G11C A51U	0.426
U12C C18A	0.0739
C44G G68C	0.475
G17C G34C	0.0723
G31A U46A	0.108
C13G C48U	0.0739
U69G U79C	0.326
G50C G53A	0.665
G76A A87U	1.08
C30G G40A	0.0923
G11C C15G	0.131

Variant	self-cleavage
G10C C24A	0.692
G39C A78C	0.125
C49U C62A	0.652
G55C U65G	1.06
C24G C61A	0.112
U20A A45U	0
C61G C84G	0.386
G40U A77U	0.212
G55C A71G	0.912
A56U U69G	0.959
U37G C62A	0.0594
U27C U46A	0.529
G10U G59A	0.636
G55A A71U	0.652
G29C C33G	0.185
A45G G59A	1.06
G1U C61G	0.326
C4A C86G	0.405
G29C A56U	0.0755
C44A U46G	0.785
U9C G39U	0.665
C3U A87G	0.752
C33A G55C	0.181
A51U U69A	0.95

Variant	self-cleavage
C15A G55A	0.796
U12C G25A	0.17
C21G C64U	0.0287
G28C C36U	0.145
G68A G81U	0.124
U12G G25A	0.151
U27C G31U	0.161
C21G C48U	0.0707
A43U C63G	0.394
G39U C49U	0.649
G28A G74U	0.0432
A42U G55U	0.597
C30G U69G	0
C33G A51U	0.0811
U9A U46C	0.831
C36G A83C	0.0831
C21A U46A	0.322
C22U C33G	0.163
G17C U47G	0.217
U20C G39A	0
C32A U79C	0.0733
G52A G74C	0.133
C3A C41A	0.25
U23A G81U	0.134

Variant	self-cleavage
U72C C75G	0.166
G55C G68C	0.752
G11C C49G	0.0504
C57A G80U	0.253
C13U G55C	0.658
G29C U69G	0.0504
C62U G67U	1.02
U46G A78G	0.443
C41U G76C	0.861
G25U C64A	0.151
G6U G68C	0.383
U47C G53A	0.87
C58U A87U	0.915
G2C C19U	0.0665
G2A U69A	0.22
G31A C63A	0.379
G29A G59U	0.149
C36A G80U	0.0825
U47G A78G	1.19
C41U C75G	0.208
C22G C48A	0.141
U20G G50A	0.151
A42G U69G	0.554
U46G G80A	0.0811

Variant	self-cleavage
C63U A83G	0.653
C57G U72G	0.733
G5A G39A	0.181
U9A A43C	0.447
G40U C41A	0.843
U37C A45U	0.639
G6C A78U	0
C33G G74C	0.237
G5A A51C	0.312
G35C G39C	0.119
U9G A43C	0.415
U46A C75A	0.151
C3U C85U	0.626
G25U C36U	0.218
G55A C64U	1.04
C18G A71C	0.172
U12A C84A	0.506
C21G C63G	0.0378
G11A C32A	0.0231
C22A A43U	0.0437
G1U C22G	0.214
C22U C49A	0.665
C7G U69G	0.293
C3A G53A	0.519

Variant	self-cleavage
G52C G73C	0.339
G10U G76U	1.14
G35A A45C	0.0378
C49G G52C	0.287
C64A U79A	0.796
U46G C75A	0.208
U27A A43U	0.401
G6A U46C	0.508
U27C A78C	0.0594
C30U A77U	0.215
G31U G40A	0.359
G11A U23G	0.13
C64A G81A	0.386
G31C G52A	0.234
C57A A87U	1.13
U23C C32U	0.587
U23C C32A	0.125
C4G G81A	0.0382
C30A C36A	0.0361
G6U C75G	0.145
G40C A78G	0.318
G1A A78C	0.0627
U23A A56G	1.02
U37G C44U	0.119

Variant	self-cleavage
G6C C21G	0.0875
A45U G74U	0.305
A16G G17U	0.643
C3A U65A	0.641
G40C U65C	0.155
C14U G76C	1.06
C24G C44A	0.0297
C24G C44U	0.0978
G17C G52U	0.363
U47G C62A	1.02
C33U A87C	0.745
C21U C33G	0.104
G10A C63U	0.655
A45U C61G	0.815
G68A G73A	0.463
U37A C62A	0.212
C15G G38U	0
G25U A51U	0.237
A8U G53C	1.01
U47A G53A	1.22
G34U C49U	0.136
C7U G54C	0.884
G35C C58U	0.231
U69C A87G	1.1

Variant	self-cleavage
G73U G82A	0.135
C14G C48A	0.723
G17A C19A	0.142
G25U G50C	0.136
C15A G28U	0.0615
G1A U60G	0.302
U12C G82U	0.104
C13U G50C	0.636
A43C G54A	0.415
G28U G73U	0.169
U27G G39U	0.222
A56G U79A	0.277
C19U C36U	0.0314
G1A C66A	0.26
A71C G81U	0.17
U72A A77U	0.322
U12C G50C	0.434
G73U G76C	0.158
C33U A71G	0.886
C15G A51U	0.475
G5U G28A	0
C75U C85G	0.122
G38A C63G	0.0811
C19U C63A	0.199

Variant	self-cleavage
G34A U69C	0.291
G52C G54U	0.513
U46A G53C	0.877
C3U A77U	0.354
U23C G73A	0.525
C44A G67A	0.415
G10C U47A	0.853
A56U U65C	1.04
G17C U20G	0.128
C3U A42C	0.181
U23C U60A	0.877
A43G C86G	0.727
C19A G59A	0.125
G17C G29C	0.166
U27A G73U	0.261
U65C G74C	0.204
G28C C32U	0.19
G11U G80C	0
A8C A87C	0.805
C18U C22U	0.121
A56U C58A	1.16
G5U G6C	0
G28C C58A	0.166
U69A A77C	0.199

Variant	self-cleavage
C3U U47G	0.594
A8G U47A	1.05
U60C G82U	0.495
C18A G76A	0.0678
G11C U23C	0.277
U46A U69A	1.08
C13A U65C	0.203
C66G U79G	0.772
G11A G55A	0.499
C30G G54C	0.095
G39A A42U	0.272
G31U G35A	0.17
C30G G81C	0.032
C64U U72A	0.567
A8U C41G	0.506
U69C G80A	0.305
U9A G74A	0.491
G5U C24U	0.115
C44A G82C	0.0773
U23A A51U	0.923
C66U U79A	0.869
G10C G11U	0.185
U20C C22G	0.0554
C49A C62A	0.81

Variant	self-cleavage
G2U A43G	0.0205
U72C G73A	0.407
C21G G54C	0.0264
A45G U69G	1.21
C22G A71U	0.0923
G6A U37A	0.214
G55A C85U	0.885
G6U G29C	0.119
U47A U60C	0.88
G25A C66G	0.376
C21U C26G	0.406
C18U G31A	0.0702
C21A A77U	0
G1C G35C	0
G25C G68A	0.227
A8C C63G	0.554
C24U G82A	0.107
C19U G31A	0.102
C3A A71G	0.38
C15G G59U	0.375
G34C A78C	0.0898
C14A C26U	1.07
